# Experimental data: IntAct's records for PubMed 17167415
# B1: DNA replication regulator SLD3 (Saccharomyces cerevisiae), P53135 (parent)
# chain: METWEVIASVKEATKGLDLSLDHPLIIKSEDVPSNILQLLQQKNRRQLKHICMKSRKEYFLLEEYGPGFWVKWPYNYFNGYSLPERRTEVVTTVERERAKRETLKTWDELKFKELLHLWSEEPKGSCKLEKDKDLKLDMNPPDMKGESKINDYYSDPKEYIESKYYDALFSIHTPLAYFVKSNLVRLKNTCRTKYGSDSYKIAYQAMLQKFLLSIVQFKDRHDNRLLLEPFSSPIADEKRKNCLTKFVIQDENKNSSTIADLCVVLKSREIKLQILLLLEIIGLNDLDWNFRDFEKKYKLKLKKRSLNLTKKGLVRRRSKKKTSEKDKGIERITTSLDYCEQLDLYLDRACILDILLSSETPNPDAIEASNGTIQEHKKNILDKSKEASLVGFINYVLIPYFNKKVPHAVEFIIQKLKGPSMRPKRALKKVNDSTNVSSPNTVETYNRLSTSQRASRSSIINSVPSSPALRRVDANLFSRKSIASPTPELLNSRTNSNLNEFLESETRSLKRPSQLGRTKSDLTMNHLQKRQFSVSDLSTTRVPNSSTITLKTPFSHSTINAYKTMNNSFRRVGKRKDINETIRLHERVDSEENVQVQATPAVKKRTVTPNKKAQLQSIIESPLNFKDDDTHEGRKNTSNITSTPTNKPPENSSKRRVRRRLFAPEST
# partner: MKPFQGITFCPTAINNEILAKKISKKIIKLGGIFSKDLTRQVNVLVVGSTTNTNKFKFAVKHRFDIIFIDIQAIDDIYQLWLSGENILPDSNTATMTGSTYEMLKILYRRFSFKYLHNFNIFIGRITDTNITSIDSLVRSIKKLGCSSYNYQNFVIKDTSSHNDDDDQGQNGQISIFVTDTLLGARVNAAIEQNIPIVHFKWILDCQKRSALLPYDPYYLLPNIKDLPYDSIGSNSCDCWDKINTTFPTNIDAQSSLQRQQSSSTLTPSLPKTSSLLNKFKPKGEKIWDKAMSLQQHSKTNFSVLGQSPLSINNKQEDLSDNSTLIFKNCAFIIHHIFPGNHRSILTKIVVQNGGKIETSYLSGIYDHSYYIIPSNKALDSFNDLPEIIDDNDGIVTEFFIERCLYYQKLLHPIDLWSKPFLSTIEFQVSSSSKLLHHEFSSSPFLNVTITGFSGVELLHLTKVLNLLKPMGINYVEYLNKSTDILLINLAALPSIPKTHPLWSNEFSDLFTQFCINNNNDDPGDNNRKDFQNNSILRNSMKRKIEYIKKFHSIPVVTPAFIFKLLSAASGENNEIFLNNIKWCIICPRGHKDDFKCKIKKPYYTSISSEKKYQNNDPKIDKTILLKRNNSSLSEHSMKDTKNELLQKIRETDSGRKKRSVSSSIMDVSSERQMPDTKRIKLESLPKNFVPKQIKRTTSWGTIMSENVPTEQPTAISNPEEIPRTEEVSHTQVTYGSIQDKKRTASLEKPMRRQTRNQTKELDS
# Variants of: B1
# Conditions: with dpb11_yeast DPB11, P47027
row,Variant,effect of a mutation on the interaction
1,T600A;S622A,disrupting interaction strength
